Source: article PMC6588657 (2018)

Target: Full-length Drosophila ATL (Drosophila) (UniProt Q9VC57)
Sequence (Q9VC57 whole entry): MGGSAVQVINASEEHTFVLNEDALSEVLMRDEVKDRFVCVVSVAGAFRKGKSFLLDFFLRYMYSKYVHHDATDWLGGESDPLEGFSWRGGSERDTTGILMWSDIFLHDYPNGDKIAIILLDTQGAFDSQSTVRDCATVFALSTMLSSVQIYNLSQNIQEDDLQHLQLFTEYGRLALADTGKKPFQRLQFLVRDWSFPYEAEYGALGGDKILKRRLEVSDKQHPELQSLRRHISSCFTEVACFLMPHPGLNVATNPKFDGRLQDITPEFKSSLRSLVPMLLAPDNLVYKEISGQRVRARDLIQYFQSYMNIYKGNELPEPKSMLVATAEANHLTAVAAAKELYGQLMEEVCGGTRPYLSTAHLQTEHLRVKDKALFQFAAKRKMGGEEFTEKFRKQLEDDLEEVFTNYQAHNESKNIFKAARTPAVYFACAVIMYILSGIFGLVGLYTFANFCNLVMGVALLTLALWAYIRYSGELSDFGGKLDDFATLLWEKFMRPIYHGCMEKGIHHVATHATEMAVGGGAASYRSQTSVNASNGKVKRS

**Q.** Which GTP-dependent fusion of dmATL donor and acceptor vesicles (NBD dequenching), dmLnp-NT at 5 times the concentration of dmATL, against samples without Lnp does the source give for dmLnp-NT-Flag-GST (domain or fragment) here?
**A.** 50%
